Measurements: patent publication US6413521B1, “Helminth parasite antigen with aminopeptidase-like activity” (The Barbraham Institute, priority 1993, dated 2002)

Tests used:
pig ApA and ApM = details: Aoyagi et al., J. Antibiotics 43(2); cited from earlier work
Con A Oo12 ApA activity = assay: Con A O12 aminopeptidase inhibition assay, ApA (α-glutamic p-nitroanilide); type: biochemical, Ostertagia ostertagi
Protocol: (§1) The effect of various protease inhibitors on Oo12 activity was assayed and included amastatin (aminopeptidase inhibitor), actinonin (aminopeptidase inhibitor), bestatin (aminopeptidase inhibitor), EDTA (metallo-protease inhibitor), E64 (cysteine protease inhibitor), pepstatin (aspartic protease inhibitor), 1,10 phenanthroline (metallo-protease inhibitor) and 3,4-dichloroisocoumarin (DCI, serine protease inhibitor). 10 μl Con A Oo12 and 100 μl 50 mM Mops buffer, pH 7.0 was added to a microtitre plate well and 2-4 μl of enzyme inhibitor added, to give a final concentration of 0.5 mM and 1 mM actinonin, 50 μM and 100 μM bestatin, 1 mM and 15 mM EDTA, 50 μM and 100 μM E64, 10 and 50 μM pepstatin, 1 mM and 10 mM 1,10 phenanthroline, 100 μM and 500 μM DCI. The plate was preincubated at 37° C. for 20-28 minutes and then assayed for ApM and ApA activity. 100 μl 2 mM leucine p-nitroanilide (ApM) or α-glutamic p-nitroanilide (ApA)/Mops was added per well and the optical density (OD) at 405 nm read using an Elisa plate reader. The plates were incubated at 37° C. for 45-48 minutes and the final OD reading was then taken. The OD change per minute per 10 μl sample was calculated. All assays were carried out in triplicate.

Con A Oo12 ApM activity = assay: Con A O12 aminopeptidase inhibition assay, ApM (leucine p-nitroanilide); type: biochemical, Ostertagia ostertagi
Protocol: as §1

[1] = system: O. ostertagi extracted residue (microsomal aminopeptidase); assay: Trypsin digestion of O12: aminopeptidase activity released from extracted O. ostertagi residue; type: biochemical, Ostertagia ostertagi
Protocol: The residue obtained by centrifuging an homogenate of O. ostertagi in phosphate-buffered saline containing 0.02% sodium azide (PBSa) at 26,500 g (max) for 20 minutes in a swing-out rotor was re-extracted 3 times with PBSa, once with 1% polyoxyethylenesorbitan monolaurate (Tween 20) in PBSa and once with 50 mM 3-[N-morpholino]propane-sulphonic acid (MOPS) pH 8.0. The extracted residue was resuspended in 50 mM MOPS to give the equivalent of 0.17 g worm starting material per ml. Aliquots were digested with 0.5, 5, 50 or 500 μg TPCK-trypsin (trypsin treated with L-1-tosylamide-2-phenylethylchloromethyl ketone)/ml. Digestions were stopped by the addition of 10 mM DCI (15 μl/ml). […] Release of microsomal aminopeptidase A activity was negligible from pellets digested with 0-50 μg TPCK-trypsin/ml.
In another experiment material from 5 g O. ostertagi was digested twice with 50 μg/ml TPCK-trypsin. About 33% of the original amount of ApM was released after a second digest. […] Fractions were run on SDS-PAGE on a 6-16% minigel. After Coomassie blue staining, a band located around the 116,000 region, about the size expected from tryptic digestion of O12 was located in the fractions having the microsomal aminopeptidase activity.
A further 4.3 g of O. ostertagi was digested twice with TPCK-trypsin as above. The total aminopeptidase activity solubilised equalled 455 nmoles/min (Table 6). The high speed supernatants from the first and second digests (Trypsin HS1 & HS2) were buffer exchanged with ConA buffer A and run on a ConA sepharose column. The start material applied to the column was enriched for ApM activity, having a ratio of ApM:ApA of 18:1. All the ApM activity bound to the column (there was none in the wash-through); and 67% of this was recovered by elution with 0.5M methylglucopyranoside+0.2M methylmannoside. (Thus the use of two sugars in the eluting buffer more than doubled ApM recovery from the ConA column.) Fractions containing ApM activity were pooled, concentrated and subjected to gel filtration (on an FPLC Superdex 75 HR10/30 (Pharmacia) column). […]

Ostertagia ostertagi PHP = assay: Protease digestion of Oo PhP, release of ApM activity; type: biochemical
Protocol: Method: Oo PhP was resuspended in 50 mM Mops buffer, pH 7.0 to give 0.1 mg pellet/ml. 50 μl aliquots were prewarmed at 37° C. for 39 minutes. 5 μl of either α-Chymotrypsin (Sigma type VII, 50 units/mg solid), Subtilisin (Sigma type VIII, 11.6 units/mg solid), Trypsin (Sigma, TPCK-treated type XIII, 9700 units/mg solid) or Thermolysin (Sigma, 37 units/mg solid dissolved in 1 mM KCl/2 mM CaCl) was added to give final protease concentrations of 5, 50, 500, 1000 and 2000 μg/ml. Aliquots containing chymotrypsin, trypsin or subtilisin were then incubated at 37° C. for 1 hour and protease activity inhibited by the addition of 1 μl 10 mM 3,4-dichloroisocoumarin (DCI). Aliquots containing thermolysin were incubated for 2 hours at 37° C. and activity inhibited by the addition of 1 μl 0.25M EDTA. Samples were spun at high speed on the airfuge at 20 psi for 20 minutes at room temperature. 5 μl samples were assay for ApM activity, using the microtitre plate method, over 29.6 minutes with methionine-pNA as substrate.

Oc12 = assay: Blot of O. circumcincta extracts probed with biotinylated lectins; type: binding, Ostertagia circumcincta; details: electroblot of O.circumcincta extracts
From the text: The O.circumcincta extracts were electroblotted alongside a sample of H110D and probed with several biotinylated lectins to determine which, if any, would bind to Oc12. (FIG. 8). Biotinylated Concanavalin A, Ulex europaeus, Triticum vulgaris, Dolichos biflorus and Arachis hypogea lectins were used at dilutions optimised for use with H110D. […] U.europaeus lectin bound to several low molecular weight bands and may be used as an affinity chromatography column for removing low molecular weight protein from OcThHS. The wash-through fractions from such a column were applied to a Con A affinity column and the bound proteins were eluted with a gradient of 0-100% 0.5M methylglucoside (FIG. 9). Fractions were assayed for aminopeptidase-like activity (FIG. 10). Aminopeptidase M-like activity was present in the binding fractions.

| Molecule | Aminopeptidase M activity released by protease digestion, Met-pNA (Ostertagia ostertagi PHP; 5 μg protease/0.1 mg PHP/ml) | Aminopeptidase M activity released by protease digestion, Met-pNA (Ostertagia ostertagi PHP; 50 μg protease/0.1 mg PHP/ml) | Aminopeptidase M activity released by protease digestion, Met-pNA (Ostertagia ostertagi PHP; 500 μg protease/0.1 mg PHP/ml) | Aminopeptidase M activity released by protease digestion, Met-pNA (Ostertagia ostertagi PHP; 1000 μg protease/0.1 mg PHP/ml) | Aminopeptidase M activity released by protease digestion, Met-pNA (Ostertagia ostertagi PHP; 2000 μg protease/0.1 mg PHP/ml) | other results |
| --- | --- | --- | --- | --- | --- | --- |
| CC(C)C[C@@H](N)[C@H](O)C(=O)N[C@H](C(=O)N[C@H](C(=O)N[C@@H](CC(=O)O)C(=O)O)C(C)C)C(C)C [Amaststin, amastatin] |  |  |  |  |  | inhibition of pig ApA versus ApM (pig ApA and ApM): better inhibitor of pig ApA than of ApM; α-Glu-pNA enzyme activity (Con A Oo12 ApA activity; inhibitor 10 μM): 0.282 nmoles/min/10 μl ConA O12; α-Glu-pNA enzyme inhibition (Con A Oo12 ApA activity; inhibitor 10 μM): 12%; α-Glu-pNA enzyme activity (Con A Oo12 ApA activity; inhibitor 50 μM): 0.205 nmoles/min/10 μl ConA O12; α-Glu-pNA enzyme inhibition (Con A Oo12 ApA activity; inhibitor 50 μM): 36%; Leu-pNA enzyme activity (Con A Oo12 ApM activity; inhibitor 10 μM): 0.218 nmoles/min/10 μl ConA O12; Leu-pNA enzyme inhibition (Con A Oo12 ApM activity; inhibitor 10 μM): 86%; Leu-pNA enzyme activity (Con A Oo12 ApM activity; inhibitor 50 μM): 0.074 nmoles/min/10 μl ConA O12; Leu-pNA enzyme inhibition (Con A Oo12 ApM activity; inhibitor 50 μM): 95% |
| Trypsin: protease, Sigma, TPCK-treated type XIII, 9700 units/mg solid (protein, UniProt P00760 24-246, looked up, TPCK-treated, protease, Sigma, TPCK-treated type XIII, 9700 units/mg solid) Serine protease 1: IVGGYTCGANTVPYQVSLNSGYHFCGGSLINSQWVVSAAHCYKSGIQVRLGEDNINVVEGNEQFISASKSIVHPSYNSNTLNNDIMLIKLKSAASLNSRVASISLPTSCASAGTQCLISGWGNTKSSGTSYPDVLKCLKAPILSDSSCKSAYPGQITSNMFCAGYLEGGKDSCQGDSGGPVVCSGKLQGIVSWGSGCAQKNKPGVYTKVCNYVSWIKQTIASN | 0.118 nmoles/min/5 μl high speed supernatant | 0.246 nmoles/min/5 μl high speed supernatant | 1.075 nmoles/min/5 μl high speed supernatant | 1.273 nmoles/min/5 μl high speed supernatant | 1.068 nmoles/min/5 μl high speed supernatant | release of microsomal aminopeptidase A activity ([1]; 0-50 μg TPCK-trypsin/ml): negligible; release of microsomal aminopeptidase M activity ([1]; 50 μg TPCK-trypsin (485 units), of 0.5, 5, 50 or 500 μg/ml): greatest amount; original amount of ApM released after a second digest ([1]; 5 g O. ostertagi digested twice with 50 μg/ml): About 33% |
| Subtilisin: protease, Sigma type VIII, 11.6 units/mg solid (protein, UniProt P00780 106-379, looked up) Subtilisin Carlsberg: AQTVPYGIPLIKADKVQAQGFKGANVKVAVLDTGIQASHPDLNVVGGASFVAGEAYNTDGNGHGTHVAGTVAALDNTTGVLGVAPSVSLYAVKVLNSSGSGSYSGIVSGIEWATTNGMDVINMSLGGASGSTAMKQAVDNAYAKGVVVVAAAGNSGSSGNTNTIGYPAKYDSVIAVGAVDSNSNRASFSSVGAELEVMAPGAGVYSTYPTNTYATLNGTSMASPHVAGAAALILSKHPNLSASQVRNRLSSTATYLGSSFYYGKGLINVEAAAQ | 0.06 nmoles/min/5 μl high speed supernatant | 0.10 nmoles/min/5 μl high speed supernatant | 0.35 nmoles/min/5 μl high speed supernatant | 0.66 nmoles/min/5 μl high speed supernatant | 0.95 nmoles/min/5 μl high speed supernatant |  |
| Thermolysin: protease, Sigma, 37 units/mg solid (protein, UniProt P00800 233-548, looked up) Thermolysin: ITGTSTVGVGRGVLGDQKNINTTYSTYYYLQDNTRGNGIFTYDAKYRTTLPGSLWADADNQFFASYDAPAVDAHYYAGVTYDYYKNVHNRLSYDGNNAAIRSSVHYSQGYNNAFWNGSQMVYGDGDGQTFIPLSGGIDVVAHELTHAVTDYTAGLIYQNESGAINEAISDIFGTLVEFYANKNPDWEIGEDVYTPGISGDSLRSMSDPAKYGDPDHYSKRYTGTQDNGGVHINSGIINKAAYLISQGGTHYGVSVVGIGRDKLGKIFYRALTQYLTPTSNFSQLRAAAVQSATDLYGSTSQEVASVKQAFDAVGVK | 0.06 nmoles/min/5 μl high speed supernatant | 0.07 nmoles/min/5 μl high speed supernatant | 0.08 nmoles/min/5 μl high speed supernatant | 0.11 nmoles/min/5 μl high speed supernatant | 0.19 nmoles/min/5 μl high speed supernatant | release of ApM from the PhP (Ostertagia ostertagi PHP; 5-2000 μg/ml protease): least effective |
| D.biflorus lectin: biotinylated Dolichos biflorus lectin (protein) ANIQSFSFKNFNSPSFILQGDATVSSGKLQLTKVKENGIPTPSSLGRAFYSSPIQIYDKSTGAVASWATSFTVKISAPSKASFADGIAFALVPVGSEPRRNGGYLGVFDSDVYNNSAQTVAVEFDTFSNSGWDPSMKHIGIDVNSIKSIATVSWDLANGENAEILITYNAATSLLVASLVHPSRRTSYILSERVDITNELPEYVSVGFSATTGLSEGYIETHDVLSWSFASKLPDDSTAEPLDLASYLVRNVL |  |  |  |  |  | binding of biotinylated lectin to Oc12 (Oc12): binds very weakly |
